{"source": "patent US20260242483A1", "about": "(IMCHECK THERAPEUTICS, published 2026)", "binders": {"B1": {"name": "mAb3 (antibody, V domains shown)", "VH": "QVQLVQSGAEVKKPGASVKVSCKASGYTFNGYYIHWVRQAPGQGLEWMGWINSNSGGTKYAQKFQGRVTMTRDTSISTAYMELSRLRSDDTAVYYCARRHSDMIGYYYGMDVWGQGTTVTVSS", "VL": "DIQMTQSPSSVSASVGDRVTITCRASQGISSWLAWYQQKPGKAPKLLIYAASSLQSGVPSRFSGSGSGTDFTLTISSLQPEDFATYYCQQATDFPPTFGGGTKVEIKR"}, "B2": {"name": "mAb6 (antibody, V domains shown)", "VH": "not shown", "VL": "DIQMTQSPSSLSASVGDRVTITCRASQSISLFLNWYQQKPGKAPKLLIYTASSLQSGVPSRFSGSGSGTDFTLTISSLQPEDFATYYCQQANSFPPTFGGGTKVDIKR"}, "B3": {"name": "7.2 VH2/VK1 F(ab′)2 (other)", "heavy": "QVQLVQSGAEVKKPGASVKLSCKASGYIFTRYYMYWVKQRPGQGLEWIGEINPNNGGTKFNEKFKNRATLTVDKSISTAYMELSRLRSDDTAVYYCSREDDYDGTPFAMDYWGQGTLVTVSS", "light": "not shown", "notes": "not shown: IgG4 CH1 and hinge up to the pepsin cleavage site"}, "B4": {"name": "7.2 VH2/VK2 F(ab′)2 (other)", "heavy": "QVQLVQSGAEVKKPGASVKLSCKASGYIFTRYYMYWVKQRPGQGLEWIGEINPNNGGTKFNEKFKNRATLTVDKSISTAYMELSRLRSDDTAVYYCSREDDYDGTPFAMDYWGQGTLVTVSS", "light": "not shown", "notes": "as for B3"}, "B5": {"name": "Chimeric 7.2 (VH0/Vκ0) (antibody, V domains shown)", "VH": "QVQLQQSGAELVKPGASVKLSCKASGYIFTRYYMYWVKQRPGQGLEWIGEINPNNGGTKFNEKFKNKATLTVDKFSSTAYMQLRSLTSEDSAVYYCSREDDYDGTPFAMDYWGQGTSVTVSS", "VL": "DIQMNQSPSSLSASLGDTITITCHASQNINVWLSWYQQKPGNIPKLLIYKASNLHTGVPSRFTGSGSGTGFTLTISSLQPEDIATYYCQQGQTYPYTFGGGTKLEIK", "notes": "not used; also called 7.2 VH0/Vk0; chimeric 7.2 antibody"}, "B6": {"name": "mAb1 (antibody, human IgG1, kappa)", "heavy": "QVQLVQSGAEVKKPGASVKLSCKASGYIFTRYYMYWVKQRPGQGLEWIGEINPNNGGTKFNEKFKNRATLTVDKSISTAYMELSRLRSDDTAVYYCSREDDYDGTPFAMDYWGQGTLVTVSSASTKGPSVFPLAPSSKSTSGGTAALGCLVKDYFPEPVTVSWNSGALTSGVHTFPAVLQSSGLYSLSSVVTVPSSSLGTQTYICNVNHKPSNTKVDKRVEPKSCDKTHTCPPCPAPEFEGGPSVFLFPPKPKDTLMISRTPEVTCVVVDVSHEDPEVKFNWYVDGVEVHNAKTKPREEQYNSTYRVVSVLTVLHQDWLNGKEYKCKVSNKALPASIEKTISKAKGQPREPQVYTLPPSREEMTKNQVSLTCLVKGFYPSDIAVEWESNGQPENNYKTTPPVLDSDGSFFLYSKLTVDKSRWQQGNVFSCSVMHEALHNHYTQKSLSLSPG", "light": "not shown", "notes": "Humanized 7.2 (VH2/Vk1), silent IgG1 L247F/L248E/P350S, kappa; also called 7.2 VH2/VK1 IgG1; IgG1 7.2 VH2/VK1"}, "B7": {"name": "mAb2 (antibody, human IgG1, kappa)", "heavy": "QVQLVQSGAEVKKPGASVKLSCKASGYIFTRYYMYWVKQRPGQGLEWIGEINPNNGGTKFNEKFKNRATLTVDKSISTAYMELSRLRSDDTAVYYCSREDDYDGTPFAMDYWGQGTLVTVSSASTKGPSVFPLAPSSKSTSGGTAALGCLVKDYFPEPVTVSWNSGALTSGVHTFPAVLQSSGLYSLSSVVTVPSSSLGTQTYICNVNHKPSNTKVDKRVEPKSCDKTHTCPPCPAPEFEGGPSVFLFPPKPKDTLMISRTPEVTCVVVDVSHEDPEVKFNWYVDGVEVHNAKTKPREEQYNSTYRVVSVLTVLHQDWLNGKEYKCKVSNKALPASIEKTISKAKGQPREPQVYTLPPSREEMTKNQVSLTCLVKGFYPSDIAVEWESNGQPENNYKTTPPVLDSDGSFFLYSKLTVDKSRWQQGNVFSCSVMHEALHNHYTQKSLSLSPG", "light": "not shown", "notes": "Humanized 7.2 (VH2/Vk2), silent IgG1 L247F/L248E/P350S, kappa; also called 7.2 VH2/VK2 IgG1; IgG1 7.2 VH2/VK2"}}, "key": {"[1]": {"target": "T1, recombinant human BTN3A1-His (Sino Biological Cat. No. 15973-H08H) (human, UniProt O00481 30-254)", "T1 construct": "Bought protein; also called BTN3A1 His-tagged antigen; CD277; not shown: C-terminal His tag", "T1 sequence (O00481 30-254 limits assumed)": "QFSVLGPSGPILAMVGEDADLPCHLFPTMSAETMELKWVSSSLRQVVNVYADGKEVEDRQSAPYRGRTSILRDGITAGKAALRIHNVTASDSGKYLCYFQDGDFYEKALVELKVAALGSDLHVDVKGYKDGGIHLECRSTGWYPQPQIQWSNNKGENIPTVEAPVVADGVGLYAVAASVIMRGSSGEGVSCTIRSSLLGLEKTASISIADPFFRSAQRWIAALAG", "experiment": "SPR Biacore single cycle kinetics; BTN3A1-His captured via anti-His, IgG analyte, bivalent analyte fit", "description": "(§1) All single cycle kinetic experiments were run at 25° C. with HBS-P+ running buffer (pH 7.4) containing 0.1% BSA (GE Healthcare, Little Chalfont, UK).\n(§2) BTN3A1 His-tagged antigen (Sino Biological, Beijing, China) was diluted in running buffer to a final concentration of 0.4 μg/ml. At the start of each cycle, BTN3A1-His was captured onto Fc2 of CM5 sensor chip pre-coupled using a His capture kit (GE Healthcare, Little Chalfont, UK) with standard amine chemistry at a flow rate of 10 μl/min. An immobilization level (RL) of ~34 RU, 16 RU or 11 RU, the different theoretical values to obtain a RMax of ~50 RU was used for the analytes Fab, F(ab′) 2 and IgG respectively. The surface was then allowed to stabilize. Single cycle kinetic data was obtained with the purified samples (Fab, F(ab′)₂ and IgG) at a flow rate of 40 μl/min to minimize any potential mass transfer effects. The signal from the reference channel Fc1 (no antigen capture) was subtracted from that of Fc2 to correct for differences in non-specific binding to the reference surface. The signal for BTN3A1-His blank runs (no analyte) were subtracted to correct for differences in surface stability. The association phase for the five injections of increasing concentrations was monitored for 240 seconds each time and a single dissociation phase was measured for 1400 seconds following the last injection of analyte. Regeneration of the chip surface was conducted using two injections of 10 mM glycine-HCL pH 1.5 followed by a stabilization period of 240 seconds. Raw sensorgrams were fitted with a 1:1 model for Fab samples and with a bivalent analyte model for F(ab′)₂ and IgG samples in agreement with the different valences of the analytes. The kinetic constants were calculated for each variant (see Tables 10, 11 and 12)."}, "[2]": {"target": "T1, recombinant human BTN3A1-His (Sino …)", "experiment": "SPR Biacore single cycle kinetics; BTN3A1-His captured via anti-His, IgG analyte, bivalent analyte fit (Ka1)", "description": "as §1\nas §2, with “The signal for BTN3A1-His blank runs (no analyte) were subtracted to correct for differences in surface stability.” left out, “Regeneration of the chip surface was conducted using two injections of 10 mM glycine-HCL pH 1.5 followed by a stabilization period of 240 seconds. Raw sensorgrams were fitted with a 1:1 model for Fab samples and with a bivalent analyte model for F(ab′)₂ and IgG samples in agreement with the different valences of the analytes.” left out"}, "[3]": {"target": "T1, recombinant human BTN3A1-His (Sino …)", "experiment": "SPR Biacore single cycle kinetics; BTN3A1-His captured via anti-His, IgG analyte, bivalent analyte fit (Kd 1)", "description": "as §1\nas §2, with “The signal for BTN3A1-His blank runs (no analyte) were subtracted to correct for differences in surface stability.” left out, “Regeneration of the chip surface was conducted using two injections of 10 mM glycine-HCL pH 1.5 followed by a stabilization period of 240 seconds. Raw sensorgrams were fitted with a 1:1 model for Fab samples and with a bivalent analyte model for F(ab′)₂ and IgG samples in agreement with the different valences of the analytes.” left out"}, "[4]": {"target": "T1, recombinant human BTN3A1-His (Sino …)", "experiment": "SPR Biacore multi-cycle kinetics; antibody captured on Protein A, BTN3A1-His analyte, 1:1 fit"}, "[5]": {"target": "T1, recombinant human BTN3A1-His (Sino …)", "experiment": "SPR Biacore single cycle kinetics; BTN3A1-His captured via anti-His, F(ab′)2 analyte, bivalent analyte fit", "description": "as §1\nas §2, with “The signal for BTN3A1-His blank runs (no analyte) were subtracted to correct for differences in surface stability.” left out, “Regeneration of the chip surface was conducted using two injections of 10 mM glycine-HCL pH 1.5 followed by a stabilization period of 240 seconds. Raw sensorgrams were fitted with a 1:1 model for Fab samples and with a bivalent analyte model for F(ab′)₂ and IgG samples in agreement with the different valences of the analytes.” left out"}, "[6]": {"target": "T2, BTN3A3-CFP on HEK293T BTN3KO cells (human, UniProt O00478 30-584)", "T2 construct": "Transient transfection of BTN3A knock-out HEK293T; also called HEK293T BTN3KO + 3A3-CFP; not shown: CFP fusion partner", "T2 sequence (O00478 30-584)": "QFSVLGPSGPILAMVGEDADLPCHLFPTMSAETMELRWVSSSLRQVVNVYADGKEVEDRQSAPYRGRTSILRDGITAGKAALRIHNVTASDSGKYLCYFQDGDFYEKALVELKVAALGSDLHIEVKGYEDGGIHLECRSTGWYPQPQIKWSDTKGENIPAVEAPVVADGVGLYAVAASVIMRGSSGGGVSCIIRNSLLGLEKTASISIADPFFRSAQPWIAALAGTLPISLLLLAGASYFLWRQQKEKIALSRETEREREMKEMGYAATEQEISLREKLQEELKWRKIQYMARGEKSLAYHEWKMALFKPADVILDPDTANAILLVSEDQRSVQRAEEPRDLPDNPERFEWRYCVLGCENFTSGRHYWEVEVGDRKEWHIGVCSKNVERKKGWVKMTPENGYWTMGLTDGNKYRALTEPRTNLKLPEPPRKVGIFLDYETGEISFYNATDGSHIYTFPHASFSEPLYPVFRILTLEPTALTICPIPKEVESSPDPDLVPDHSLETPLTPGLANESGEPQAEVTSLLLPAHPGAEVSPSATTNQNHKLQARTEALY", "experiment": "flow cytometry on HEK293T BTN3KO transiently transfected with BTN3A3-CFP, gated CFP+ (n = 5)"}, "[7]": {"target": "T3, BTN3A1-CFP on HEK293T BTN3KO cells (human, UniProt O00481 30-513)", "T3 construct": "Transient transfection of BTN3A knock-out HEK293T; also called HEK293T BTN3KO + 3A1-CFP; not shown: CFP fusion partner", "T3 sequence (O00481 30-513)": "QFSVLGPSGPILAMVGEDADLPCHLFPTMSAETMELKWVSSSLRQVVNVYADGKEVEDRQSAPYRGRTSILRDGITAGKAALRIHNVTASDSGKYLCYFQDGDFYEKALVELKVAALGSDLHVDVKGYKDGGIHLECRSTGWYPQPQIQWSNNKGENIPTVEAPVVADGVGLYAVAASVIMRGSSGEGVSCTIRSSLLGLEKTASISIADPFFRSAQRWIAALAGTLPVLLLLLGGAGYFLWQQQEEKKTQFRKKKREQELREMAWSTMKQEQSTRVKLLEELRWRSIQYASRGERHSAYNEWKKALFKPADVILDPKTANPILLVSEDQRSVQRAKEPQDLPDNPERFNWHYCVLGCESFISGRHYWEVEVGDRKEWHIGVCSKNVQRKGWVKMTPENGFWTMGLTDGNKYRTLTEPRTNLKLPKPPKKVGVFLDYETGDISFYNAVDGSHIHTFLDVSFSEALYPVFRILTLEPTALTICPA", "experiment": "flow cytometry on HEK293T BTN3KO transiently transfected with BTN3A1-CFP, gated CFP+ (n = 4)"}, "[8]": {"target": "T4, BTN3A2-CFP on HEK293T BTN3KO cells (human, UniProt P78410 30-334)", "T4 construct": "Transient transfection of BTN3A knock-out HEK293T; also called HEK293T BTN3KO + 3A2-CFP; not shown: CFP fusion partner", "T4 sequence (P78410 30-334)": "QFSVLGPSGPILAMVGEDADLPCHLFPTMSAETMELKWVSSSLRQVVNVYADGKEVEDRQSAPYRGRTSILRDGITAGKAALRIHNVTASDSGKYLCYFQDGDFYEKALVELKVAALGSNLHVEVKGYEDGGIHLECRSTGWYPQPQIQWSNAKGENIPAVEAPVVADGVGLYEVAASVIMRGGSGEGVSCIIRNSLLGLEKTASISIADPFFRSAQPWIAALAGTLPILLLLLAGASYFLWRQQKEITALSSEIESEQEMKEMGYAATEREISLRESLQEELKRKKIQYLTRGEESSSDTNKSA", "experiment": "flow cytometry on HEK293T BTN3KO transiently transfected with BTN3A2-CFP, gated CFP+ (n = 5)"}}, "data": [{"binder": "B1", "values": [{"measurement": "Kd 2", "setting": "[1]", "result": "8.6e-05", "unit": "s⁻¹"}, {"measurement": "kon", "setting": "[2]", "result": 56300, "unit": "M⁻¹ s⁻¹"}, {"measurement": "koff", "setting": "[3]", "result": 0.00379, "unit": "s⁻¹"}]}, {"binder": "B2", "values": [{"measurement": "Kd", "setting": "[4]", "result": 0.319, "unit": "nM"}]}, {"binder": "B3", "values": [{"measurement": "Kd 2", "setting": "[5]", "result": 32.4, "unit": "s⁻¹"}]}, {"binder": "B4", "values": [{"measurement": "Kd 2", "setting": "[5]", "result": 54.6, "unit": "s⁻¹"}]}, {"binder": "B5", "values": [{"measurement": "Kd", "setting": "[4]", "result": 0.176, "unit": "nM"}]}, {"binder": "B6", "values": [{"measurement": "Kd 2", "setting": "[1]", "result": 44, "unit": "s⁻¹"}, {"measurement": "EC50", "setting": "[6]", "result": 1.75, "unit": "µg/mL"}, {"measurement": "EC50", "setting": "[7]", "result": 2.4, "unit": "µg/mL"}, {"measurement": "EC50", "setting": "[8]", "result": 1.88, "unit": "µg/mL"}]}, {"binder": "B7", "values": [{"measurement": "Kd 2", "setting": "[1]", "result": 0.0241, "unit": "s⁻¹"}]}]}
